# The DeepSol protein solubility set
# Assay: soluble on expression in E. coli; label from the status in PepcDB or PDB records
row,Sequence,soluble on expression in E. coli
1,GSHMGGGGGIVLFVDFDYFYAQVEEVLNPSLKGKPVVVCVFSGRFEDSGAVATANYEARKFGVKAGIPIVEAKKILPNAVYLPMRKEVYQQVSSRIMNLLREYSEKIEIASIDEAYLDISDKVRDYREAYNLGLEIKNKILEKEKITVTVGISKNKVFAKIAADMAKPNGIKVIDDEEVKRLIRELDIADVPGIGNITAEKLKKLGINKLVDTLSIEFDKLKGMIGEAKAKYLISLARDEYNEPIRTRVRKSIGRIVTMKRNSRNLEEIKPYLFRAIEESYYKLDKRIPKAIHVVAVTEDLDIVSRGRTFPHGISKETAYSESVKLLQKILEEDERKIRRIGVRFSKFIEAIGLDKFFDT,soluble
2,FHHYKILDTNILIDGRIYDLAKTGFLEGTLLVPNFVLYELQYIADSSDSVKRVRGRRGLDILNKLQNEHIMPIEMYEGDFEDIPEVDSKLIALAKQNGGVIVTNDYNLNKVIQFQNVQVLNINSLANALKPRVI,not soluble
3,SQILDRKGRLIANIYDKEFRFYARFEEIPPRFIESLLAVEDTLFFEHGGINLDAIMRAMIKNAKSGRYTEGGSTLTQQFVKNMVLTREKTLTRKLKEAIISIRIEKVLSKEEILERYLNQTFFGHGYYGVKTASLGYFKKPLDKLTLKEITMLVALPRAPSFYDPTKNL,not soluble
4,MGHVSNSPFSVDVLVVGGGPAGSAAAIHAAKAGYSVLLIDAQPFPRDKTCGDGLTPRAVHQLEALGVDVTSRYRSFGLKLHGFGGSVTVPWPESHFGQVSSAMPRMKFDAMLWEMAAQHATTWTATASEVEIDSAIRSVTMSDGRVVKPRSVIVADGVRSTFGKLLGRTWHRGEVYGIAARSYCTTPRSTEPWMHSHLELRDDSTTLPGYGWIFPIGDGTANVGCGALSTDKRPAKINTKKLLRHYASQQTDWEFGTPQRVASALLPMGGAVSTIAGPNWMLIGDAAACVNPLNGEGIDYGLETAALAVAHLDNPLEWPHILRETYGEAFLLARTAARLLTYPQFLPLTGPIALRTPLMASAARLMGNLVTEEDKDIVARAWRAAGWGVTKIRGGSPLWDLEHHHHHH,not soluble
5,MTKCSIIIGIFLIAAINGQASKRRIQYESVSQFLFHNSKLCGDPFSDAVWLPVLDLCSIECEITSEYCVENEELTQQCKKLPEDCQALLRKAIKQIQRHIRSQKPVYL,not soluble
6,MKQLSGLLGELRQKLCAGFPEQAGIQQLIFPAPGLVGRQLLEWLTAQTHFPQFYWRHRDNHEEAAVCGQTRSFADMKDADDFIQQNPDANGLRIWGLNAFEPVMVFGQLTDNGLVSGKNAQASFLFLPRLEILRRGKKTSLTLNLSSETSLQKDALQAITFIDQLMAARALPVLNARIQHSSHTPGYPQWRNLIQQALNDIEQQKLDKVVLARTTTLTLNKPLSCAAFMAASRQVNHRCYHFMLRFDDRQAFLGSSPERLYLRQQLHLETEALAGTVSNLDSDPQAAVLADWLMHDEKNQRENLLVVDDICQRLQGGVTAVDVMPPEIIRLRKVQHLRRRICAQLSRASDTDCLQRLQPTAAVAGLPREAARQFIAKHELFSRGWYAGSAGYLSLKRTEFSVALRSARVDGQQIHLYAGAGIVAGSDAEQEWQEIDNKSAGLQSLLEHEAQPVKA,not soluble
7,MGSDKIHHHHHHMQFSPEQDNALKAVSAWLKEGRSPLFRLFGYAGTGKTTLARYFAETVDGSVQFTAFTGKAAQVLRSKGASNACTIHSLIYCPRGEEEVSDEVTGKKSIAPTFALNRRSAAAQAKLIIVDECSMVDEQLARDLMSFRTPILVLGDPGQLPPISGGGFFSNGVPDFLLSEIHRQARDNPIVRLAMDVREGRDIPYGNYGAARVVTRKEVHQQLVLDADQLLVGINRTRYLYNKRLRVLKGFTAAYPQAGDKLVCLRNDPAKGLLNGSLWKVMTSQKETVKPGVNLLVKPEESERGVVKIKLLKALFENPDSDISWQLKKRYDDFDYGYALTVHKAQGSQWNNVVLFDESFAFRDMSARWLYTGITRAAERLTIVR,not soluble
8,MDYEIENNHADSIRRGSIEVICGSMFSGKTEELLRRLRRAKIARQTVEIFKPTIDIRYDETDVVSHDKNAIASTPVDNSANILLLSSQVDVVGIDEAQFFDEGLVEVAQQLADQGVRVVIAGLDMDFRRQPFGPMPGLCAIADSVTKVHAVCVECGRLASYSFRRVQGDQQVMLGELNEYSPLCRTCYRKCSSPPQTEEIHSTI,not soluble
9,RAPDLAGVPDCLVIVGGSMAAVKAPTALRRLREGGASTAVIATRAALAFITPLSLATAGNCEVATDETWFAPQPIAQHLSLARARVTVVLGASAELLAAAAHGHADTLATATLLSAEGQVLWVPAMNERMWLHPAVQANAERLRGWGHLFLGPETGAFGTPGEGSGTGRMAEPEAIAARALALLNEQDAEAEAAPQDLAGLKVV,not soluble
10,GSAMASNAVLYKSNHNVVYSCKYHIVWCPKYRRKVLVGAVEMRLKEIIQEVAKELRVEIIEMQTDKDHIHILADIDPSFGVMKFIKTAKGRSSRILRQEFNHLKTKLPTLWTNSCFISTVGGAPLNVVKQYIENQQNSNRPKQKEKWKSYVDNLQTKAL,soluble
11,MPILIRNIVLAPGEGDDVLGTRVAERFGVPERDIQSLHLVRKSIDARRKPRVIIVCTVQCRLLDEAGFLVRHGHDPDVKAVKEEPQPVFPRLAGGGRIVIVGMGPAGLFAALRLAEYGLAPTILERGRPVEERTRDVQAFWSLGQLDTESNVQFGEGGAGTFSDGKLTTRVNDSRIGYVLQKFVDFGASPEILHLAKPHVGTDQLRRVVAGIRQGLLAAGCDIRFRSRVTDIVSREGRVGTVIVNGTDEIAADALVLAPGHSARDTYEMLARRGVHLQAKPFAMGVRVEHPQELINGIQYGKGHHPALPPADYALAHNDRRTGRSAYSFCMCPGGVVVAGSSEEGGVVTNGMSAHLRNTPFANSALVVTVGPDDFGSSSPLAGVEFQRHWERRAFEAGGGGYRAPAQNLLSFLGMKGGKGVSSSYRPRVTETDLSRVLPAAVTGTLREALPTFDRRMRGFVTAEATLTGVETRTSAPVRIVRGEDCQSVSLQGLYPTGEGAGYAGGIMSAALDGIRVADIIAGKMTAETRSAILEHHHHHH,not soluble
12,MIGQTNLFDDVLKQDERFVIVVQALEEKNGQLLKRTLREYPGLNHKQMNDLFTHLKELFSEESFAENQSAFSITVYTNLDYTADQIYAHVKRFRGKHDWTQTAKLEHHHHHH,soluble
13,MRVLFIGDVMAEPGLRAVGLHLPDIRDRYDLVIANGENAARGKGLDRRSYRLLREAGVDLVSLGNHAWDHKEVYALLESEPVVRPLNYPPGTPGKGFWRLEVGGESLLFVQVMGRIFMDPLDDPFRALDRLLEEEKADYVLVEVHAEATSEKMALAHYLDGRASAVLGTHTHVPTLDATRLPKGTLYQTDVGMTGTYHSIIGGEVETFLARFLTGRPQPFRAAQGKARFHATELVFEGGRPVAISPYVWEEP,soluble
14,MRKPILAALTLAGLGLAQEFITIGSGSTTGVYFPVATGIAKLVNDANVGIRANARSTGGSVANINAINAGEFEMALAQNDIAYYAYQGCCIPAFEGKPVKTIRALAALYPEVVHVVARKDAGIRTVADLKGKRVVVGDVGSGTEQNARQILEAYGLTFDDLGQAIRVSASQGIQLMQDKRADALFYTVGLGASAIQQLALTTPIALVAVDLNRIQAIAKKYPFYVGFNIPGGTYKGVDVTTPTVAVQAMLIASERLSEETVYKFMKAVFGNLEAFKKIHPNLERFFGLEKAVKGLPIPLHPGAERFYKEAGVLK,soluble
15,TVKSGLILQSISNDVYHNLAVEDWIHDHMNLEGKPVLFLWRNSPTVVIGRHQNPWQECNLNLMREEGVKLARRRSGGGTVYHDMGNINLTFFTTKKKYDRMENLKLVVRALKAVHPHLDVQATKRFDLLLDGQFKISGTASKIGRNAAYHHCTLLCGTDGTFLSSLLKSPYQGIRSNATASTPALVKNLMEKDPTLTCEVVINAVATEYATSHQIDNHIHLINPTDETVFPGINSKAIELQTWEWIYGKTPKFSVDTSFTVLHEQSHVEIKVFIDVKNGRIEVCNIEAPDHWLPLEICDQLNSSLIGSKFSPIETTVLTSILHRTYPGDDELHSKWNILCEKIKGIM,soluble
16,GPGSMEAVGTADRPSLEFCPQAQNSPQTRPLLCVRRPPETVRRRHDRNPPRDSTQTADAVPWDSSSSPPHASCTAGGYKTSRGARQMALPFLFPPPGVGQRSFVADRVHRRQHCGLAQPLPQPWLRAASRSILLGDASSALPPLDPPAARPSVCRQRLALHGSGG,not soluble
17,AHHHHHHGSISREQILEVLEKYDKEKITIGVIGSHSALDITDGAKEEGFPTLVVAQRGRHKTYEKYFKLRKTRDGLVKGFIDEVIVLEKFSQIIDIQEELRKRNVIFIPNRSFVVYTGIDRVENEFLVPMFGTRSLLRTEERSEEKSYYWLLEKAKLPYPEEVKPEEIDEVGLVIVKLPHAKKRLERGFFTAASYKEFKEKSEKLIRLGVITREDLEKARIERYIIGPVFNFDFFYSPIDEEIELLGIDWRFETSLDGHVRLPAAQQLTLPEWQFEPEYTVCGHASSTLRESLLEKVFDMAEKYVEATKKYYPPGIIGPFTLQTAVDKDLNFYIYDVAPRTGGGTNIHMAMGHPYGNSLWRKPMSTGRRIALEIKRAIELDELEKVVT,not soluble
18,GPGSAPSKDGHVFEMSRPEQAAYGLAMSLVRWHAFNRFCANCGTATDPTRDVGFSRFCPKCRKQHFPQLVPAVLVAVLDGKGNVILSQRRKESKVLTLLSGFVLHGESAEETVRREVEEESGARVSKVRYIGSQPWPYPYLMMMCYYAVADASPSLVVDASELERVMWVSKQDVRRALEGQHSDMELRGPGTTPYAMLKPWVDGKVDDRGRITKPQSQL,not soluble
19,QSIEKLYAEFETEPIASASIAQVHKARLHSGEQVAVKVLRPNLLPVIEQDLSLMRFGAGWVERLFADGKRLKPREVVAEFDKYLHDELDLMREAANASQLGRNFQNSDMLIVPKVFYDYC,not soluble
20,MRILFVAAGSPATVFALAPLATAARNAGHQVVMAANQDMGPVVTGVGLPAVATTDLPIRHFITTDREGRPEAIPSDPVAQARFTGRWFARMAASSLPRMLDFSRAWRPDLIVGGTMSYVAPLLALHLGVPHARQTWDAVDADGIHPGADAELRPELSELGLERLPAPDLFIDICPPSLRPANAAPARMMRHVATSRQCPLEPWMYTRDTRQRVLVTSGSRVAKESYDRNFDFLRGLAKDLVRWDVELIVAAPDTVAEALRAEVPQARVGWTPLDVVAPTCDLLVHHAGGVSTLTGLSAGVPQLLIPKGSVLEAPARRVADYGAAIALLPGEDSTEAIADSCQELQAKDTYARRAQDLSREISGMPLPATVVTALEQLAHHHHHH,soluble
21,MGSDKIHHHHHHMDHLPPLRLLVTFEAISRHGSMRDAAQRLNVTQPAVSQALKALEDHVGVALFDRSVRPARLTDAGEMLSRAVREGLGRIAATLEDIRALHAIGERQVTVSCTLGMATYWLMPKLPMFYADYPELTVNVQAPATDLPVLSPGIDVALRYGRGGWREGRTEKLFAEVICPVGAPALVERLLAEGATLAEAPLIHVRNPHNDHWAGWEDYLQARGIQRPRGGGQIFNNYVQAAQAIYDGRGLMLGWRSITGQAERDGALRAWPDGALDLGTSYFVTMPTTPSQDTLLFVDWVRKAAATV,not soluble
22,MGSDKIHHHHHHMTKLHYIRNKDCNMKEGLKLNKGKLIAQGKTSEVFEYGQDKILKLFRKDLPEKNIENEYEVSFNLSKKMKLVPKVYDLVEVDDRKGIIYEKVNGTTMMEVISSKPWKVKKEAQRLAELHEAIQKPVDFELPDYKTTLKENISKTELLEEDIKKRLYDYIDELKDDDLLCHGDFHPDNVLITEEGEVIIDWMTASKGSRIADIARTSVMLKFGASPVKRSAEKKIIKFVRNRFYSGYIKHYMKITGINKEQIEEWELPIAAARLNEWLPKSEKVDLLKFIDMKMK,not soluble
23,RPSINFYESLIDSSSLDGKLLSPRRSSGWVRVDTNMWGNPFFGFRSDLVSGQFRPDYPFRFSSNLYLSKEVKEIVLNTIASTPRNGVGRYKYSDLGFILLQQIVEKVSGKSLNVFVEERIFRPIGAGSLGYLPLDKYSVSRIAPAQNDKFLRKSIVRGTVDDE,not soluble
